Measurements published in paper PMC2722380.

Target: His-tagged p55 fusion protein (recombinant full length human erythrocyte p55), expressed in E. coli (human) (UniProt Q00013)
Test: SPR

His-tagged p55 fusion protein (recombinant full length human erythrocyte p55), expressed in E. coli (human), sequence (Q00013 whole entry, the tested form may be a part): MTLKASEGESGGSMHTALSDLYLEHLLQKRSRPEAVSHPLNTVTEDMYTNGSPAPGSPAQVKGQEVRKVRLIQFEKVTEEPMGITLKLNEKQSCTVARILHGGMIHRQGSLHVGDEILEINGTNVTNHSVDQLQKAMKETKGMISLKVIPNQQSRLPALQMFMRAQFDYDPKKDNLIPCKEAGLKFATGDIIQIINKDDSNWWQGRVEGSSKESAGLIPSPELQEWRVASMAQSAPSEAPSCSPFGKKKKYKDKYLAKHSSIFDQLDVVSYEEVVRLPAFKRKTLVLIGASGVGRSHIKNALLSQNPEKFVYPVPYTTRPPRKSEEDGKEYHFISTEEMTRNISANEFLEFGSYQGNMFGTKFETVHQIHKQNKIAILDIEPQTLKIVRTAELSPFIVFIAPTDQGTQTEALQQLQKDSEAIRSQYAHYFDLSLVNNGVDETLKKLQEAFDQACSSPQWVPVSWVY

Kd [µM]	koff [s⁻¹]	kon [M⁻¹ s⁻¹]	Substance
0.03	0.0018	–	MBP fusion of the exon 10-encoded peptide of protein 4.1R (domain or fragment)
0.132	0.0029	22000	MBP-FERMΔExon 5 fusion protein of human protein 4.1R (lacks exon 5, contains exon 10) (domain or fragment)
0.015	0.0024	160000	MBP fusion of the exon 5-encoded peptide of protein 4.1R (domain or fragment)
